Data: the Human Domainome abundance scans (Beltran et al. 2025)
± gives the uncertainty stated by the source.

B1: Proto-oncogene vav, residues 782 to 842; numbered along this chain, P15498 (parent)
chain: KYFGTAKARYDFCARDRSELSLKEGDIIKILNKKGQQGWWRGEIYGRVGWFPANYVEEDYS
B2: Retinoic acid receptor RXR-alpha, residues 132 to 208; numbered along this chain, P19793 (parent)
chain: KHICAICGDRSSGKHYGVYSCEGCKGFFKRTVRKDLTYTCRDNKDCLIDKRQRNRCQYCRYQKCLAMGMKREAVQEE

Variants of: B1
Assay: abundance fitness (aPCA) (normalised: wild type 0, dead -1); higher = more abundant; growth selection in yeast, the domain comes from the species named
Conditions: Homo sapiens

Abundance fitness: each site, then its substitutions
N54: V -0.098 ± 0.054; H -0.185 ± 0.15; T -0.112 ± 0.094; I -0.376 ± 0.13; F -0.406 ± 0.12; E 0.05 ± 0.086; G -0.065 ± 0.062; L -0.219 ± 0.065; W -0.091 ± 0.096; M -0.214 ± 0.097; K -0.092 ± 0.11; P -0.29 ± 0.089; A 0.051 ± 0.074; C -0.017 ± 0.12; D 0.064 ± 0.087; R 0.055 ± 0.07; Q -0.201 ± 0.12; S -0.054 ± 0.053
E58: Q -0.19 ± 0.17; S -0.362 ± 0.095; A -0.186 ± 0.077; Y -0.065 ± 0.14; L -0.225 ± 0.077; P -0.169 ± 0.12; H -0.533 ± 0.31; M -0.216 ± 0.094; D -0.435 ± 0.2; T -0.129 ± 0.093; W -0.364 ± 0.1; G -0.338 ± 0.082; N -0.6 ± 0.38; F -0.297 ± 0.16; V -0.117 ± 0.089; R -0.336 ± 0.076
S61: A -0.073 ± 0.18; I -0.2 ± 0.35; P 0.232 ± 0.15; V -0.216 ± 0.15; F -0.28 ± 0.16; L -0.095 ± 0.12; W -0.084 ± 0.17; G -0.194 ± 0.17; R -0.011 ± 0.15; D -0.208 ± 0.4; H 0.019 ± 0.3; C 0.071 ± 0.18; E -0.235 ± 0.17; K -0.196 ± 0.25
V56: Q -1 ± 0.3; W -0.543 ± 0.091; R -1.03 ± 0.14; C -0.452 ± 0.13; H -0.753 ± 0.34; A -0.191 ± 0.098; G -0.545 ± 0.13; N -0.807 ± 0.33; K -0.599 ± 0.18; I -0.554 ± 0.14; P -0.73 ± 0.18; Y -0.325 ± 0.32; L -0.616 ± 0.08; F -0.794 ± 0.2; M -1.02 ± 0.3; E -0.562 ± 0.21; S -0.919 ± 0.14
Y60: P -0.183 ± 0.11; F 0.017 ± 0.15; W -0.169 ± 0.12; M 0.009 ± 0.1; R -0.005 ± 0.073; S 0.016 ± 0.071; D 0.106 ± 0.18; E 0.005 ± 0.13; H 0.027 ± 0.17; K -0.122 ± 0.19; G -0.039 ± 0.085; Q -0.097 ± 0.12; A -0.079 ± 0.088; I -0.024 ± 0.12; L 0.062 ± 0.057; V 0.134 ± 0.098; C -0.119 ± 0.14
Y55: R -0.135 ± 0.057; W -0.198 ± 0.17; T -0.206 ± 0.097; E -0.763 ± 0.23; L 0.058 ± 0.05; G -0.396 ± 0.11; P -0.925 ± 0.37; V -0.074 ± 0.046; H -0.226 ± 0.14; Q -0.457 ± 0.14; D -0.736 ± 0.19; C 0.093 ± 0.11; F -0.258 ± 0.16; S -0.206 ± 0.094; K -0.388 ± 0.11; M -0.012 ± 0.078; A 0.053 ± 0.073
D59: C -0.125 ± 0.11; W 0.048 ± 0.15; Y -0.244 ± 0.1; L -0.138 ± 0.06; Q 0.01 ± 0.11; V -0.009 ± 0.073; G -0.097 ± 0.088; H -0.109 ± 0.11; F -0.015 ± 0.11; R -0.285 ± 0.081; N 0.052 ± 0.1; P -0.371 ± 0.11; M -0.027 ± 0.12; A -0.188 ± 0.082; E -0.038 ± 0.1; T 0.008 ± 0.082
E57: H -0.424 ± 0.17; K -0.313 ± 0.12; S -0.059 ± 0.074; Y -0.106 ± 0.11; P -1.02 ± 0.27; D -0.172 ± 0.2; N -0.185 ± 0.16; W -0.478 ± 0.13; T 0.025 ± 0.074; A -0.052 ± 0.074; F -0.175 ± 0.14; L -0.194 ± 0.065; R -0.123 ± 0.071; V -0.001 ± 0.076; C -0.284 ± 0.16; M -0.105 ± 0.098; I -0.073 ± 0.11; Q -0.109 ± 0.12
A53: T -0.227 ± 0.08; R -0.151 ± 0.062; S -0.082 ± 0.063; V -0.301 ± 0.061; Y -0.341 ± 0.19; W -0.451 ± 0.079

Variants of: B2
Assay: as above
Conditions: Homo sapiens

Abundance fitness, by site and new letter:
E77: C 0.013 ± 0.041
H2: T -0.026 ± 0.052; E 0.055 ± 0.051; Q -0.031 ± 0.043; K 0.096 ± 0.047; D 0.072 ± 0.061; S 0.011 ± 0.043
K1: V -0.206 ± 0.042; F -0.217 ± 0.065
R33: I 0.004 ± 0.034; V 0.018 ± 0.029; C -0.287 ± 0.04
K50: D 0.019 ± 0.06; E -0.077 ± 0.052
C7: H -0.942 ± 0.1
C21: P -0.9 ± 0.072; S -0.98 ± 0.057
R30: I -0.352 ± 0.07; K 0.073 ± 0.056; E -0.041 ± 0.041
K14: S -0.04 ± 0.037; W -0.013 ± 0.034; V -0.057 ± 0.028
R53: I 0.014 ± 0.035; N 0.03 ± 0.033
S20: R -0.571 ± 0.029; H 0.015 ± 0.03; A 0.047 ± 0.025
